The text below walks through data of US20210230279A1 (University of California, published 2021).

Sequences and labels used below:
B1: C6 VH / RGD3-10 Vk murine IgG (antibody, V domains shown)
VH: QIQLLQSGPELKKPGETVKISCKASGYTFTDYSMHWVKQAPGKGLKWVARINTETGEPTFADDFRGRFAVSLETSASTAYLQINNLKNEDTATYFCAIFYYGRDSWGQGTTLTVSS
VL: DIVMTQSPSSLAVSAGEKVTMSCKSSQSLLGRGDLGRLKKQKDHWYQQKPGQSPRLLIYWASTRESGVPDRFTGSGSGTDFTLTISSVQAEDLAVYYCKQSYNLLSFGAGTKLELKR
notes: Murine IgG, supernatant of 293 cells; CDRL1 swap into the C6D4 murine IgG vector, VH not altered; also called C6RGD3-10
B2: C6 VH / RGD3-4 Vk murine IgG (antibody, V domains shown)
VH: B1 VH
VL: DIVMTQSPSSLAVSAGEKVTMSCKSSQSLLGRGDLGRLKKQNALAWYQQKPGQSPRLLIYWASTRESGVPDRFTGSGSGTDFTLTISSVQAEDLAVYYCKQSYNLLSFGAGTKLELKR
notes: Murine IgG, supernatant of 293 cells; CDRL1 swap into the C6D4 murine IgG vector, VH not altered; also called C6RGD3-4
B3: C6 VH / RGD3-1 Vk murine IgG (antibody, V domains shown)
VH: B1 VH
VL: DIVMTQSPSSLAVSAGEKVTMSCKSSQSLLGRGDLGRLKKQKDHNALAWYQQKPGQSPRLLIYWASTRESGVPDRFTGSGSGTDFTLTISSVQAEDLAVYYCKQSYNLLSFGAGTKLELKR
notes: Murine IgG, supernatant of 293 cells; CDRL1 swap into the C6D4 murine IgG vector, VH not altered; also called C6RGD3-1
B4: C6 VH / RGD3-2 Vk murine IgG (antibody, V domains shown)
VH: B1 VH
VL: DIVMTQSPSSLAVSAGEKVTMSCKSSQSLLGRGDLGRLKKQKDNALAWYQQKPGQSPRLLIYWASTRESGVPDRFTGSGSGTDFTLTISSVQAEDLAVYYCKQSYNLLSFGAGTKLELKR
notes: Murine IgG, supernatant of 293 cells; CDRL1 swap into the C6D4 murine IgG vector, VH not altered; also called C6RGD3-2
B5: C6 VH / RGD3-6 Vk murine IgG (antibody, V domains shown)
VH: B1 VH
VL: DIVMTQSPSSLAVSAGEKVTMSCKSSQSLLGRGDLGRLKNALAWYQQKPGQSPRLLIYWASTRESGVPDRFTGSGSGTDFTLTISSVQAEDLAVYYCKQSYNLLSFGAGTKLELKR
notes: Murine IgG, supernatant of 293 cells; CDRL1 swap into the C6D4 murine IgG vector, VH not altered; also called C6RGD3-6
B6: C6 VH / RGD3-3 Vk murine IgG (antibody, V domains shown)
VH: B1 VH
VL: DIVMTQSPSSLAVSAGEKVTMSCKSSQSLLGRGDLGRLKKQKNALAWYQQKPGQSPRLLIYWASTRESGVPDRFTGSGSGTDFTLTISSVQAEDLAVYYCKQSYNLLSFGAGTKLELKR
notes: Murine IgG, supernatant of 293 cells; CDRL1 swap into the C6D4 murine IgG vector, VH not altered; also called C6RGD3-3
B7: C6 VH / RGD3-11 Vk murine IgG (antibody, V domains shown)
VH: B1 VH
VL: B5 VL with N40K, A41Q, L42K, A43D
notes: Murine IgG, supernatant of 293 cells; CDRL1 swap into the C6D4 murine IgG vector, VH not altered; also called C6RGD3-11
B8: C6 VH / RGD3-9 Vk murine IgG (antibody, V domains shown)
VH: B1 VH
VL: B2 VL with N42K, A43D, L44H, A45H
notes: Murine IgG, supernatant of 293 cells; CDRL1 swap into the C6D4 murine IgG vector, VH not altered; also called C6RGD3-9
B9: C6 VH / RGD3-12 Vk murine IgG (antibody, V domains shown)
VH: B1 VH
VL: DIVMTQSPSSLAVSAGEKVTMSCKSSQSLLGRGDLGRLKKQKWYQQKPGQSPRLLIYWASTRESGVPDRFTGSGSGTDFTLTISSVQAEDLAVYYCKQSYNLLSFGAGTKLELKR
notes: Murine IgG, supernatant of 293 cells; CDRL1 swap into the C6D4 murine IgG vector, VH not altered; also called C6RGD3-12
B10: C6 VH / RGD3-8 Vk murine IgG (antibody, V domains shown)
VH: B1 VH
VL: DIVMTQSPSSLAVSAGEKVTMSCKSSQSLLGRGDLGRNALAWYQQKPGQSPRLLIYWASTRESGVPDRFTGSGSGTDFTLTISSVQAEDLAVYYCKQSYNLLSFGAGTKLELKR
notes: Murine IgG, supernatant of 293 cells; CDRL1 swap into the C6D4 murine IgG vector, VH not altered; also called C6RGD3-8
B11: C6 VH / RGD3-7 Vk murine IgG (antibody, V domains shown)
VH: B1 VH
VL: B9 VL with K39N, K40A, Q41L, K42A
notes: Murine IgG, supernatant of 293 cells; CDRL1 swap into the C6D4 murine IgG vector, VH not altered; also called C6RGD3-7

Positions count from the first letter of the chain named.

T2 sequence (P06756 31-992 limits assumed, chain 1 of 2): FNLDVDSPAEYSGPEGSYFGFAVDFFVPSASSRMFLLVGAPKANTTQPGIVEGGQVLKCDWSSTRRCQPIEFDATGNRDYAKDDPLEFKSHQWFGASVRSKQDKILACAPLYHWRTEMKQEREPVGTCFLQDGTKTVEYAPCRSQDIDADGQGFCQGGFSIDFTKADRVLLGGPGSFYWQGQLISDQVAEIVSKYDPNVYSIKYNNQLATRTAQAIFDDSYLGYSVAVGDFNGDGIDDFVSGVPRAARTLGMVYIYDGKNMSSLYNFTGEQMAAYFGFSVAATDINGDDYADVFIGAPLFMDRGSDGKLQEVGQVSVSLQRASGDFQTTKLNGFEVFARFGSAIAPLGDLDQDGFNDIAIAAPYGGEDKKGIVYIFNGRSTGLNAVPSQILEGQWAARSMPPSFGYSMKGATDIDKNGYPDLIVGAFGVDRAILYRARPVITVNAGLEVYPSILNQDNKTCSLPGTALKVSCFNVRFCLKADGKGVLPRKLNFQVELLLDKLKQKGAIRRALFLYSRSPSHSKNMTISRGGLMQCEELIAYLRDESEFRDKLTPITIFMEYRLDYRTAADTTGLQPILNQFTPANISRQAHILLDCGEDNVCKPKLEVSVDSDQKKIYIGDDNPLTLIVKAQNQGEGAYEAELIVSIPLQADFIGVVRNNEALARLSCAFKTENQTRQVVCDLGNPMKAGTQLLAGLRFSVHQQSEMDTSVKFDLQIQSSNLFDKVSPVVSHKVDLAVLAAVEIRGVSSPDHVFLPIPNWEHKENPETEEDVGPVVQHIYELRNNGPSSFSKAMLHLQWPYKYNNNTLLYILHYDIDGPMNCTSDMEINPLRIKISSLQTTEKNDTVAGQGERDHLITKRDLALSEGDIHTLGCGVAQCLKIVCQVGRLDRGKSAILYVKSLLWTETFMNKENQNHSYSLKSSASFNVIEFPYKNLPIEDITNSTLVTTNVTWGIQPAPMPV
T2 sequence (P26012 43-684 limits assumed, chain 2 of 2): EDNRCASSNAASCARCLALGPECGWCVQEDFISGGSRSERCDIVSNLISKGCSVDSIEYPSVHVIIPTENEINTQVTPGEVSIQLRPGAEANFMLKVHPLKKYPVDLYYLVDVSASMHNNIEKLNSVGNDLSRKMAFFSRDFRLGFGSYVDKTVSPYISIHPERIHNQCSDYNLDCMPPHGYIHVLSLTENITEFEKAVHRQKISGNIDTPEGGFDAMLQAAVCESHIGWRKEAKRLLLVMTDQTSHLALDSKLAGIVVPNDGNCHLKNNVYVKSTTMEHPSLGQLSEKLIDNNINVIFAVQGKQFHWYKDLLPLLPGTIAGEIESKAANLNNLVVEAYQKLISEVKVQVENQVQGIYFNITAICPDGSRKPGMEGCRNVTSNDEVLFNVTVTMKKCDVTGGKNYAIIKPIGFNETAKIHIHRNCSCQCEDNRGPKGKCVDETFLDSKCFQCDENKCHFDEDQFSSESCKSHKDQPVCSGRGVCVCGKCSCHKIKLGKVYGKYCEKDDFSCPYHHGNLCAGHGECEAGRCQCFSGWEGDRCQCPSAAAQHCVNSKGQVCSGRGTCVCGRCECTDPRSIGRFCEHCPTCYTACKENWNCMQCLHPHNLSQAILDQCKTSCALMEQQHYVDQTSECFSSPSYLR
T4 sequence (chain, as listed by the source limits assumed, chain 1 of 2): as the sequence (P06756 31-992 limits assumed, chain 1 of 2) above
T4 sequence (P18084 24-719 limits assumed, chain 2 of 2): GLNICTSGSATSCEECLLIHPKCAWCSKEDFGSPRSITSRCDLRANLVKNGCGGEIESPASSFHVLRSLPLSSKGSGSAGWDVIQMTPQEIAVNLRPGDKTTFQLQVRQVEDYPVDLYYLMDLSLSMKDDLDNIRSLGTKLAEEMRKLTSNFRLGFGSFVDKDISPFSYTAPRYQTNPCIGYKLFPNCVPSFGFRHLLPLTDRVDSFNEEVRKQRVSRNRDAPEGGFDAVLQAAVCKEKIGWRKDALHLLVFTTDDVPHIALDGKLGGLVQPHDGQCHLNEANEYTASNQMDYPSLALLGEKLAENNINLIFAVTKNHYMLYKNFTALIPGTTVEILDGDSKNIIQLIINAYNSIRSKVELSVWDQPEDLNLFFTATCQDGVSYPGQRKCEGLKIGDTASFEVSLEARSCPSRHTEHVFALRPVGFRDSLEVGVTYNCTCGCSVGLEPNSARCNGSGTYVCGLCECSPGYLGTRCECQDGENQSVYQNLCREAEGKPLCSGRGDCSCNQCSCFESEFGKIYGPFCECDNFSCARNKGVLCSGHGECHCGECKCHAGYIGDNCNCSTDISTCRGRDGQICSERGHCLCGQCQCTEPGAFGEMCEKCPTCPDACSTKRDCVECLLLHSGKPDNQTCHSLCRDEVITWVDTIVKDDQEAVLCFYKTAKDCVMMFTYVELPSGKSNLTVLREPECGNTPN

The target of the first experiment is T1, recombinant human integrin αvβ3 (human, UniProt P05106 27-718).
T1 construct: Bought; also called αvβ3 (R&D systems)
T1 sequence (chain, as listed by the source limits assumed, chain 1 of 2): as the sequence (P06756 31-992 limits assumed, chain 1 of 2) above
T1 sequence (P05106 27-718 limits assumed, chain 2 of 2): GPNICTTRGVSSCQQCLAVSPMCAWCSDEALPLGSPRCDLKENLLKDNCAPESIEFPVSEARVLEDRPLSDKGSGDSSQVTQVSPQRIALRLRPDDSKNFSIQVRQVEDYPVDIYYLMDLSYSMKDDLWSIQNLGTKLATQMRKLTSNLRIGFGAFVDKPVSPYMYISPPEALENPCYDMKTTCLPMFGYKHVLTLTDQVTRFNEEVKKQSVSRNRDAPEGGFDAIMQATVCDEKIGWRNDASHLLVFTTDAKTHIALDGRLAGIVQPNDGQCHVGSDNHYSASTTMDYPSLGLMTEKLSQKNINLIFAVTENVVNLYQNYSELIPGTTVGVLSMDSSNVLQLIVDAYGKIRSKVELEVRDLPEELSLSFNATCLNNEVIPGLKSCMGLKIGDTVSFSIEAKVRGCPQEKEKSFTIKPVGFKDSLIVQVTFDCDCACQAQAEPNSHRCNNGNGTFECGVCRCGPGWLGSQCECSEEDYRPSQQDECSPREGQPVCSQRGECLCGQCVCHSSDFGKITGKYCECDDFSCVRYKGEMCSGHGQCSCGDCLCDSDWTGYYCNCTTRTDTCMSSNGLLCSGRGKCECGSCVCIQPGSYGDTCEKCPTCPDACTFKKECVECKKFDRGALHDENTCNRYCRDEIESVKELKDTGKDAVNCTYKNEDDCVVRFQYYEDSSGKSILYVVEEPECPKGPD
As to the kind of experiment: ELISA on coated recombinant human integrin; 0 = no apparent binding. (An ELISA detects its analyte on a solid surface through an enzyme-linked reagent.)
Excerpt: (§1) Binding was quantified by intensity as 0-4 (0 representing no apparent binding; 4 representing robust binding) and results normalized to expression.
As for B1, the binding result is reported as “no binding (tested: supernatant at 1/10 dilution)”.
Regarding B2, the binding result was “no binding (tested: supernatant at 1/10 dilution)”.
In the case of B3, the binding result is reported as “no binding (tested: supernatant at 1/10 dilution)”.
The same measure, in the same setting: the result for B4 reads “no binding (tested: supernatant at 1/10 dilution)”; that for B5, “no binding (tested: supernatant at 1/10 dilution)”.
On the same count and under the same terms, the result for B6 reads “no binding (tested: supernatant at 1/10 dilution)”; that for B7, “no binding (tested: supernatant at 1/10 dilution)”.
Turning to B8, the binding result is on record as “no binding (tested: supernatant at 1/10 dilution)”.

A further experiment addresses T2, recombinant human integrin αvβ8 (human, UniProt P06756 31-992; P26012 43-684).
T2 construct: also called Human Integrin alpha V beta 8; purified recombinant αvβ8
The experiment is described as above.
Excerpt: as §1
For B1, the binding result is on record as “no binding (tested: supernatant at 1/10 dilution)”.
On to B9, for which the binding result was “no binding (tested: supernatant at 1/10 dilution)”.
On the same count and under the same terms, the result for B8 reads “no binding (tested: supernatant at 1/10 dilution)”.

The target in the next experiment is T3, recombinant human integrin αvβ1 (human, UniProt P05556 21-728).
T3 construct: Bought; also called αvβ1 (R&D systems)
T3 sequence (chain, as listed by the source limits assumed, chain 1 of 2): as the sequence (P06756 31-992 limits assumed, chain 1 of 2) above
T3 sequence (P05556 21-728 limits assumed, chain 2 of 2): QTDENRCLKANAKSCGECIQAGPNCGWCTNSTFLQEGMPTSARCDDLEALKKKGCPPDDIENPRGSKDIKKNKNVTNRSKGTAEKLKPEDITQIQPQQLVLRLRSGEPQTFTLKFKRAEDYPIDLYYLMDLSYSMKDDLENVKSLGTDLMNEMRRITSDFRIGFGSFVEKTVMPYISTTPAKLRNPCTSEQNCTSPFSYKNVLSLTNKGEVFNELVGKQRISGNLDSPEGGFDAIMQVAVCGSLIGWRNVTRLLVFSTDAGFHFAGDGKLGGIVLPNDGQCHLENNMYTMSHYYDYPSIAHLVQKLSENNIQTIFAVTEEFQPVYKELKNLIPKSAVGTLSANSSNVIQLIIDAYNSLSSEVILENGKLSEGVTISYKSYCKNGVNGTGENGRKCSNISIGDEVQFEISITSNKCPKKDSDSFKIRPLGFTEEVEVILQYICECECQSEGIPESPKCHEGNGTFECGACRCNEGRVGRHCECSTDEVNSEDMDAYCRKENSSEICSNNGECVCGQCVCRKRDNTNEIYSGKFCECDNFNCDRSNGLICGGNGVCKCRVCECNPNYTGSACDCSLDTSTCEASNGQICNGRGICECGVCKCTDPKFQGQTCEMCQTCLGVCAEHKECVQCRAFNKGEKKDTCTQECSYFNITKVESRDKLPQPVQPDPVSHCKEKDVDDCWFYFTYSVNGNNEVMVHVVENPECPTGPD
The experiment is described as above.
Excerpt: as §1
For the molecule B1, the binding result is recorded as “no binding (tested: supernatant at 1/10 dilution)”.
B10: the binding result was “no binding (tested: supernatant at 1/10 dilution)”.
Still for that read-out and setting: the result for B2 reads “no binding (tested: supernatant at 1/10 dilution)”; that for B3, “no binding (tested: supernatant at 1/10 dilution)”; that for B4, “no binding (tested: supernatant at 1/10 dilution)”.
On the same count and under the same terms, the result for B5 reads “no binding (tested: supernatant at 1/10 dilution)”; that for B6, “no binding (tested: supernatant at 1/10 dilution)”; that for B11, “no binding (tested: supernatant at 1/10 dilution)”.
For B7, the binding result is “no binding (tested: supernatant at 1/10 dilution)”.
Same read-out and setting: the result for B9 reads “no binding (tested: supernatant at 1/10 dilution)”.
The same measure, in the same setting: the same measure for B8: “no binding (tested: supernatant at 1/10 dilution)”.

A further experiment concerns the target T4, recombinant human integrin αvβ5 (human, UniProt P18084 24-719).
T4 construct: Bought; also called αvβ5 (R&D systems)
The description is as above.
Excerpt: as §1
Consider B1, for which the binding result is reported as “no binding (tested: supernatant at 1/10 dilution)”.
In the case of B10, the binding result was “no binding (tested: supernatant at 1/10 dilution)”.
With B2, the binding result was “no binding (tested: supernatant at 1/10 dilution)”.
With B3, the binding result is “no binding (tested: supernatant at 1/10 dilution)”.
Take B4: the binding result was “no binding (tested: supernatant at 1/10 dilution)”.
Regarding B5, the binding result is listed as “no binding (tested: supernatant at 1/10 dilution)”.
The same measure, in the same setting: the result for B6 reads “no binding (tested: supernatant at 1/10 dilution)”; that for B11, “no binding (tested: supernatant at 1/10 dilution)”.
For the molecule B7, the binding result was “no binding (tested: supernatant at 1/10 dilution)”.
On the same count and under the same terms, the same measure for B9: “no binding (tested: supernatant at 1/10 dilution)”.
The same measure, in the same setting: the same measure for B8: “no binding (tested: supernatant at 1/10 dilution)”.

Another experiment has as its target T1, recombinant human integrin αvβ3. As to the kind of experiment: ELISA: integrin coated on plate, supernatant of transfected 293 cells at 1/10 dilution, anti-mouse IgG-HRP; score normalized to expression.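 Note: scale runs from 0 (no apparent binding) to 4 (robust binding), with scores adjusted for clone protein expression as determined by a murine IgG ELISA.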
Excerpt: as §1
Consider B10, for which the “binding intensity score (0-4)” value came out at 3 score 0-4.
Still for that read-out and setting: the result for B11 reads 4 score 0-4.
For B9, the “binding intensity score (0-4)” value was found to be 1 score 0-4.

The target in another experiment is T5, recombinant human integrin αvβ6 (human, UniProt P18564 22-707).
T5 construct: also called αvβ6 (R&D systems); αvβ6 receptor
T5 sequence (chain, as listed by the source limits assumed, chain 1 of 2): as the sequence (P06756 31-992 limits assumed, chain 1 of 2) above
T5 sequence (P18564 22-707 limits assumed, chain 2 of 2): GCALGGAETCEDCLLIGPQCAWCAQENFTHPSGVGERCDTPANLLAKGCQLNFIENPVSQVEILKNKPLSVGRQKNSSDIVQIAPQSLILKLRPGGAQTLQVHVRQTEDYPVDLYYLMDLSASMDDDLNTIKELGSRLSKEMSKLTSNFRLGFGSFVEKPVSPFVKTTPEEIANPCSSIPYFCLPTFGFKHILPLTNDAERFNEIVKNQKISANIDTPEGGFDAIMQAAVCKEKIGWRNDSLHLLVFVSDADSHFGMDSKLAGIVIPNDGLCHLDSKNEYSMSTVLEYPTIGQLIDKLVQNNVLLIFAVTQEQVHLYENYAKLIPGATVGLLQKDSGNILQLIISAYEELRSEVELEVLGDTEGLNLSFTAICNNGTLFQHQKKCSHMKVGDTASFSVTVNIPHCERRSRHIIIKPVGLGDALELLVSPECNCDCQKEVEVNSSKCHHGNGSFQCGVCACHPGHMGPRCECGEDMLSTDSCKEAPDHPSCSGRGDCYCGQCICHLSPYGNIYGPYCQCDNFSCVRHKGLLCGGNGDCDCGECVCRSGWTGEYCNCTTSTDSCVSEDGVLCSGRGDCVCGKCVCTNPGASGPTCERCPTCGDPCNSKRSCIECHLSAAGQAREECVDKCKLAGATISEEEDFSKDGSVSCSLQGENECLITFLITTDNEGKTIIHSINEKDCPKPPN
The experiment is described as above.
Excerpt: as §1
Take B1: the “binding intensity score (0-4)” value is 1 score 0-4.
The same measure, in the same setting: the same measure for B10: 3 score 0-4.
As for B2, the “binding intensity score (0-4)” value was found to be 4 score 0-4.
The same measure, in the same setting: the result for B3 reads 4 score 0-4; that for B4, 4 score 0-4; that for B5, 4 score 0-4.
As for B6, the “binding intensity score (0-4)” value amounted to 4 score 0-4.
Consider B11, for which the “binding intensity score (0-4)” value worked out at 2 score 0-4.
Regarding B7, the “binding intensity score (0-4)” value was 2 score 0-4.
For B9, the “binding intensity score (0-4)” value worked out at 2 score 0-4.
As for B8, the “binding intensity score (0-4)” value was 3 score 0-4.

For the next experiment, the target named is T2, recombinant human integrin αvβ8. Described as above.
Excerpt: as §1
As to B10, the “binding intensity score (0-4)” value was 3 score 0-4.
Turning to B2, the “binding intensity score (0-4)” value came to 4 score 0-4.
On to B3, for which the “binding intensity score (0-4)” value worked out at 1 score 0-4.
As to B4, the “binding intensity score (0-4)” value came to 4 score 0-4.
On the same count and under the same terms, the result for B5 reads 4 score 0-4; that for B6, 4 score 0-4; that for B11, 2 score 0-4.
Same read-out and setting: the result for B7 reads 1 score 0-4.
